Reference: patent US20060159683A1 (UNIVERSITY OF ZURICH, published 2006)
Residue numbers refer to the chain shown, from its start. Blank lines part the entries; values can stand above or below the binder they belong to.

Assays:
[1] = biological target: T1, recombinant soluble human epithelial glycoprotein-2 (M1-F259) with a six-histidine C-terminal tag (human, UniProt P16422 24-259); assay: SPR (BIAcore), EGP-2 immobilized, 20 C
T1 construct: range 1-259; In SPR it was amine-coupled to a CM-5 chip at 350 RU; also called recombinant soluble EGP-2-antigen; immobilized EGP-2
T1 sequence: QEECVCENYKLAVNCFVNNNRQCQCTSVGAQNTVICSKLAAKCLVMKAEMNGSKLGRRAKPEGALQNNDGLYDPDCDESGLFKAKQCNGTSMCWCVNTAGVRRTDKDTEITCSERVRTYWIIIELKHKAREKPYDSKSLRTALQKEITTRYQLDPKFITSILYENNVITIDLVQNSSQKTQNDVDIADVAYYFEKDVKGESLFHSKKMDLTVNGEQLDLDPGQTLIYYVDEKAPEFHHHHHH
Procedure: (§1) Kinetic rate constants were determined by surface plasmon resonance (SPR) with a BIAcore instrument. Recombinant soluble EGP-2-antigen was covalently coupled to a CM-5 sensor chip via free amine groups resulting, in a surface coverage of 350 resonance units. Single-chain Fv fragments were injected in increasing concentrations (0.1 nM 4.4 μM) at a flow rate of 30 μl/min of degassed PBS/0.005% Tween-20. Association and dissociation rate constants were calculated from the sensorgram the by a global curve fit using the BIAevaluation 3.0 software (Pharmacia).
(§2) To minimize rebinding effects which could lead to an underestimation of the off-rates, we used low density coating and high flow rate.

[2] = biological target: T2, epithelial glycoprotein-2 (EGP-2) on SW2 human small cell lung carcinoma cells (human, UniProt P16422 24-314); assay: RIA, 99mTc-labelled scFv on SW2 cells, 4 C
T2 construct: whole, on cells; also called GA733-2; Ep-CAM
T2 sequence (looked up): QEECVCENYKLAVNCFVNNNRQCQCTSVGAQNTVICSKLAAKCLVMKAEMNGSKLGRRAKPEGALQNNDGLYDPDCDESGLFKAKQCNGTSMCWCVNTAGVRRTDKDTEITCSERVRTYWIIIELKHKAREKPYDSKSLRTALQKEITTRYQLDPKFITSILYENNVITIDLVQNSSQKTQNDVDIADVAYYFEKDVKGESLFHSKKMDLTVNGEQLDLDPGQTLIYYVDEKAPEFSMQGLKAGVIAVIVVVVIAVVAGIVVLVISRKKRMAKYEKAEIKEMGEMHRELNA
Procedure: The binding affinity of the ^99mTc labelled single-chain Fv fragments was determined on SW2 cells in a radioimmunoaffinity assay (RIA). SW2 (0.5×10⁶) cells were incubated with increasing amounts of single-chain Fv fragment (100 pM-30 nM) for 1 hour at 4° C. For estimation of nonspecific binding control samples of cells were pre-incubated with a 100-fold excess of unlabelled single-chain. Fv fragment for 1 h at 4° C. The bound fraction of single-chain Fv fragment was determined in a scintillation counter. Each obtained value represents the mean of two samples. Counts per minutes (cpm) were plotted against the nanomolar concentration of single-chain Fv fragment and fitted with the non-linear regression function.
High-affinity binding with long residual time on the specific target antigen is regarded as one of the most important characteristics of antibodies for tumor targeting. To ensure that binding affinity was conserved in the grafting experiment dissociation constants of the radiolabelled single-chain Fv fragment were determined on cells in a radioimmunoactrvity assay (RIA).

[3] = biological target: T1, recombinant soluble human epithelial …; assay: SPR (BIAcore), EGP-2 immobilized, low density coating and high flow rate
Procedure: as §1, §2

[4] = biological target: T3, c-erbB2 (UniProt P04626 23-652, limits assumed); assay: solid-phase RIA, 99mTc-labelled scFv on coated antigen
T3 construct: also called p185Her2
Procedure: (§3) In three washing steps cells were centrifuged at 1000 g for 5 min at 4° C., the supernatants discarded and the cells re-suspended in PBS/1% BSA. The remaining radioactivity was then measured in a scintillation counter. In a further binding experiment both-scFv fragments (50 ng) were incubated with different antigens, coated (500 ng/well) on a 96 well microtiter plate, to check for cross-reactivity. The wells were washed three times with PBS/1% BSA and the radioactivity was determined.

[5] = biological target: T4, EGF-receptor (extracellular domain) (UniProt P00533 25-645); assay: as above
T4 construct: extracellular domain
Procedure: as §3

[6] = biological target: T2, epithelial glycoprotein-2 (EGP-2) on …; assay: competition RIA on SW2 cells against 99mTc-labelled 4D5MOC-A and 4D5MOC-B
Procedure: as §3

B2: anti-EGP-2 scFv fragment 4D5MOC-A (scFv)
scFv: DIQMTQSPSSLSASVGDRVTITCRSTKSLLHSNGITYLYWYQQKPGKAPKLLIYQMSNLASGVPSRFSSSGSGTDFTLTISSLQPEDFATYYCAQNLEIPRTFGQGTKVELKRTPSHNSHQVPSAGGPTANSGTSGSEVQLVESGGGLVQPGGSLRLSCAASGYTFTNYGMNWVRQAPGKGLEWMGWINTYTGESTYADSVKGRFTFSLDTSASAAYLQMNSLRAEDTAVYYCARFAIKGDYWGQGTLVTVSS
modifications: 99mTc-tricarbonyl complexed to the C-terminal His tag in the RIA and Lindmo assays; unlabelled in SPR. The tag itself is not in the letters.
notes: the others are not; Expected mass 29,855 Da; also called scFv 4D5MOC-A; graft variant 4D5MOC-A
- Kd [1]: 3.5 nM
- Kd [2]: 3.6 nM

B3: anti-EGP-2 scFv fragment 4D5MOC-B (scFv)
scFv: B2 scFv with E143Q, G146P, L155V, L157I, R175K, V201F, M220I, V249L
modifications: 99mTc-tricarbonyl bound to the C-terminal His tag in the RIA and Lindmo assays; unlabelled in SPR
notes: Expected mass 29,897 Da; also called scFv 4D5MOC-B
- Kd [1]: 3.9 nM
- koff [1]: 0.000717 s⁻¹
- kon [1]: 184000 M⁻¹ s⁻¹
- Kd [2]: 3.7 nM
- binding result [4]: no binding (tested: 50 ng scFv on 500 ng/well antigen)
- binding result [5]: no binding (tested: 50 ng scFv on 500 ng/well antigen)

The next lines start with the values.

- Kd [1]: 3 nM
- koff [1]: 0.0003 s⁻¹
- kon [1]: 99000 M⁻¹ s⁻¹
- Kd [2]: 10.8 nM
- half-life of binding [3]: ~38 min
B1: anti-EGP-2 scFv fragment obtained from the murine hybridoma MOC31 (scFv)
scFv: DIVMTQSAFSNPVTLGTSASISCRSTKSLLHSNGITYLYWYLQKPGQSPQLLIYQMSNLASGVPDRFSSSGSGTDFTLRISRVEAEDVGVYYCAQNLEIPRTFGGGTKLEIKRTPSHNSHQVPSAGGPTANSGTSGSQVQLQQSGPELKKPGETVKISCKASGYTFTNYGMNWVKQAPGRGLKWMGWINTYTGESTYADDFKGRFAFSLETSASAAYLQINNLKNEDTATYFCARFAIKGDYWGQGTTLTVSS
modifications: 99mTc-tricarbonyl bound to the C-terminal His tag in the RIA and Lindmo assays; unlabelled in SPR
notes: Murine scFv expressed from vector pAK400 in E. coli periplasm and purified by IMAC through its His tag; also called scFv MOC31; MOC31 scFv

- binding result [6]: binds
B4: murine monoclonal antibody MOC31 (antibody, V domains shown)
VH: QVQLQQSGPELKKPGETVKISCKASGYTFTNYGMNWVKQAPGRGLKWMGWINTYTGESTYADDFKGRFAFSLETSASAAYLQINNLKNEDTATYFCARFAIKGDYWGQGTTLTVSS
VL: DIVMTQSAFSNPVTLGTSASISCRSTKSLLHSNGITYLYWYLQKPGQSPQLLIYQMSNLASGVPDRFSSSGSGTDFTLRISRVEAEDVGVYYCAQNLEIPRTFGGGTKLEIK
notes: Whole murine antibody from hybridoma MOC31; also called mAb MOC31
